Patent publication US7183387 (Genentech, dated 2007)

T1: human FcγRIIB α subunit extracellular domain-6His-GST fusion (human, UniProt P31994 43-217)
T1 construct: not shown: glutathione S-transferase (GST)
T1 sequence: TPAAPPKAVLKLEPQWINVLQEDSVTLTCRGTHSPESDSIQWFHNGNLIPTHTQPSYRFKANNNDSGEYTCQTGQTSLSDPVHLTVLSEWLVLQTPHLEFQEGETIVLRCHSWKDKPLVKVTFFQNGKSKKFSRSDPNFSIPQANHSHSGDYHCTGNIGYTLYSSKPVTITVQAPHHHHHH

T2: human FcγRIIA-R131 α subunit extracellular domain-6His-GST fusion (human, UniProt P12318 34-217)
T2 construct: also called FcγRIIA-Arg131; not shown: glutathione S-transferase (GST)
T2 sequence: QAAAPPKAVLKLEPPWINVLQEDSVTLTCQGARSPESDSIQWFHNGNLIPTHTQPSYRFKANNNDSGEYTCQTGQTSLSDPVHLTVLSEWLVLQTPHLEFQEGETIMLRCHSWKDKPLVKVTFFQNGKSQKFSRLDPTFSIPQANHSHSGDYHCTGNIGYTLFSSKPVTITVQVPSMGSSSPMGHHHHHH

T3: human FcγRIIA-R131 α subunit extracellular domain-His6-GST fusion (human, UniProt P12318 34-217)
T3 construct: ECD-6His-GST fusion made in 293 cells; also called FcγRIIA-Arg131; not shown: glutathione S transferase (GST)
T3 sequence: T2 sequence

B1: E27 IgG1 variant E333(352)A/K334(353)A (antibody)
heavy: not shown
light: DIQLTQSPSSLSASVGDRVTITCRASKPVDGEGDSYLNWYQQKPGKAPKLLIYAASYLESGVPSRFSGSGSGTDFTLTISSLQPEDFATYYCQQSHEDPYTFGQGTKVEIKRTVAAPSVFIFPPSDEQLKSGTASVVCLLNNFYPREAKVQWKVDNALQSGNSQESVTEQDSKDSTYSLSSTLTLSKADYEKHKVYACEVTHQGLSSPVTKSFNRGEC
B2: E27 IgG1 variant S267(280)A/E258(271)A/D280(295)A/R255(268)A (antibody)
heavy: EVQLVESGGGLVQPGGSLRLSCAVSGYSITSGYSWNWIRQAPGKGLEWVASIKYSGETKYNPSVKGRITISRDDSKNTFYLQMNSLRAEDTAVYYCARGSHYFGHWHFAVWGQGTLVTVSSASTKGPSVFPLAPSSKSTSGGTAALGCLVKDYFPEPVTVSWNSGALTSGVHTFPAVLQSSGLYSLSSVVTVPSSSLGTQTYICNVNHKPSNTKVDKKVEPKSCDKTHTCPPCPAPELLGGPSVFLFPPKPKDTLMISATPAVTCVVVDVAHEDPEVKFNWYVAGVEVHNAKTKPREEQYNSTYRVVSVLTVLHQDWLNGKEYKCKVSNKALPAPIEKTISKAKGQPREPQVYTLPPSREEMTKNQVSLTCLVKGFYPSDIAVEWESNGQPENNYKTTPPVLDSDGSFFLYSKLTVDKSRWQQGNVFSCSVMHEALHNHYTQKSLSLSPGK
light: B1 light
notes: also called IG2 264
B3: E27 IgG1 variant S267(280)A/D280(295)A (antibody)
heavy: not shown
light: B1 light
notes: also called IG2 248
B4: E27 IgG1 variant S267(280)A/E258(271)A (antibody)
heavy: not shown
light: B1 light
B5: anti-IgE E27 IgG1 variant K334(353)N (antibody)
heavy: not shown
light: B1 light
notes: Fc variant of E27
B6: anti-IgE E27 IgG1 variant S298(317)A (antibody)
heavy: not shown
light: B1 light
notes: Fc variant of E27; also called IG2 36; G36
B7: anti-IgE E27 IgG1 variant K334(353)W (antibody)
heavy: not shown
light: B1 light
notes: Fc variant of E27
B8: anti-IgE E27 IgG1 variant P331(350)A (antibody)
heavy: not shown
light: B1 light
notes: Fc variant of E27; also called IG2 65; Pro331Ala
B9: anti-IgE E27 IgG1 variant S298(317)G (antibody)
heavy: not shown
light: B1 light
notes: Fc variant of E27; also called IG2 70
B10: anti-IgE E27 IgG1 variant K334(353)Q (antibody)
heavy: not shown
light: B1 light
notes: Fc variant of E27
B11: anti-IgE E27 IgG1 variant K334(353)G (antibody)
heavy: not shown
light: B1 light
notes: Fc variant of E27; also called IG2 179
B12: anti-IgE E27 IgG1 variant K334(353)V (antibody)
heavy: not shown
light: B1 light
notes: Fc variant of E27; also called IG2 220
B13: anti-IgE E27 IgG1 variant K334(353)S (antibody)
heavy: not shown
light: B1 light
notes: Fc variant of E27
B14: anti-IgE E27 IgG1 variant S298(317)T (antibody)
heavy: not shown
light: B1 light
notes: Fc variant of E27; also called IG2 71; Ser298Thr
B15: anti-IgE E27 IgG1 variant K334(353)H (antibody)
heavy: not shown
light: B1 light
notes: Fc variant of E27
B16: anti-IgE E27 IgG1 variant T256(269)N (antibody)
heavy: not shown
light: B1 light
notes: Fc variant of E27
B17: anti-IgE E27 IgG1 variant S298(317)N (antibody)
heavy: not shown
light: B1 light
notes: Fc variant of E27; also called IG2 72; Ser298Asn
B18: anti-IgE E27 IgG1 variant T256(269)A (antibody)
heavy: not shown
light: B1 light
notes: Fc variant of E27; also called IG2 11; Thr256Ala
B19: anti-IgE E27 IgG1 variant K334(353)M (antibody)
heavy: not shown
light: B1 light
notes: Fc variant of E27; also called IG2 190
B20: anti-IgE E27 IgG1 variant S298(317)L (antibody)
heavy: not shown
light: B1 light
notes: Fc variant of E27
B21: anti-IgE E27 IgG1 variant K334(353)Y (antibody)
heavy: not shown
light: B1 light
notes: Fc variant of E27
B22: anti-IgE E27 IgG1 variant K334(353)L (antibody)
heavy: not shown
light: B1 light
notes: Fc variant of E27; also called IG2 221

target: T4, human FcγRIIIA-F158 α subunit extracellular domain-6His-GST fusion (human, UniProt P08637 17-208); assay: ELISA, IgG:IgE hexamers on receptor-GST
T4 construct: also called FcγRIIIA-Phe158; not shown: glutathione S-transferase (GST)
T4 sequence (P08637 other isoform, or with tags, fused parts or gaps, form in doubt): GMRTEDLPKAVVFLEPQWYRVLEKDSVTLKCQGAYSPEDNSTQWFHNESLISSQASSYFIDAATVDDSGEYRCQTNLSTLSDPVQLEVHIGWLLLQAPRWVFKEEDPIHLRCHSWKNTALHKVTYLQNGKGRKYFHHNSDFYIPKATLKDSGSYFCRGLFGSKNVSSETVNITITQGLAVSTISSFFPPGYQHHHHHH

ratio to native IgG1	Binder
1.3	B1
0.89	B2
1.13	B3
1.04	B4

target: T1, human FcγRIIB α subunit extracellular …; assay: ELISA, IgG:IgE hexamers on receptor-GST

ratio to native IgG1	Binder
0.63	B1
2.03	B2
1.96	B3
2.01	B4

target: T2, human FcγRIIA-R131 α subunit …; assay: ELISA, IgG:IgE hexamers on receptor-GST

ratio to native IgG1	Binder
0.72	B1
1.48	B2
1.54	B3
1.62	B4

target: T5, human FcγRIIIA-V158 α subunit extracellular domain-His6-GST fusion (human, UniProt P08637 17-208); assay: ELISA, IgG monomer, receptor coated
T5 construct: ECD-6His-GST fusion made in 293 cells; also called FcγRIIIA-Val158; not shown: glutathione S transferase (GST)
T5 sequence (P08637 other isoform, or with tags, fused parts or gaps, form in doubt): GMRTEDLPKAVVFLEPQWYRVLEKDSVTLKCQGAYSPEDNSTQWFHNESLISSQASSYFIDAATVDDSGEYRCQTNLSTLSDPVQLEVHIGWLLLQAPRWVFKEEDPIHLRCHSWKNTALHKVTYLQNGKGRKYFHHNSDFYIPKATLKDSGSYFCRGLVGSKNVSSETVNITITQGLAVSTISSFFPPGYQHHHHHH

ratio of binding, variant/native IgG1 (mean) [ratio]	Binder
1.7	B5
1.96	B6
1.53	B7
0.78	B8
1.88	B9
1.92	B10
1.28	B11
2.89	B12
1.82	B13
0.75	B14
2.06	B15
0.88	B16
0.17	B17
1.2	B18
2.08	B19
0.67	B20
1.72	B21
3.59	B22

target: T5, human FcγRIIIA-V158 α subunit …; assay: ELISA, IgG complex, receptor coated

ratio of binding, variant/native IgG1 (mean) [ratio]	Binder
1.19	B5
1.02	B6
0.96	B7
0.96	B8
0.88	B9
1.27	B10
0.94	B11
1	B12
1.25	B13
0.96	B14
0.97	B15
0.95	B16
0.66	B17
0.97	B18
0.99	B19
0.83	B20
0.98	B21
0.96	B22

target: T6, human FcγRIIIA-F158 α subunit extracellular domain-His6-GST fusion (human, UniProt P08637 17-208); assay: ELISA, IgG complex, receptor coated
T6 construct: ECD-6His-GST fusion made in 293 cells; also called FcγRIIIA-Phe158; not shown: glutathione S transferase (GST)

ratio of binding, variant/native IgG1 (mean) [ratio]	Binder
1.15	B5
1.3	B6
1.07	B7
1.03	B8
0.46	B9
1.31	B10
0.88	B11
1.34	B12
1.19	B13
0.89	B14
1.26	B15
1.13	B16
0.06	B17
1.32	B18
1.35	B19
0.34	B20
1.31	B21
1.38	B22

target: T3, human FcγRIIA-R131 α subunit …; assay: ELISA, IgG complex, receptor coated

ratio of binding, variant/native IgG1 (mean) [ratio]	Binder
1.16	B5
0.4	B6
0.94	B7
1.29	B8
0.87	B9
1.08	B10
0.76	B11
1.13	B12
1.01	B13
0.41	B14
1.09	B15
1.03	B16
0.08	B17
1.41	B18
1.06	B19
1.14	B20
1.08	B21
1.05	B22
